Measured values: the supplement of paper PMC10567573

B1: PTPN9 (parent)
chain: IDFLRVVRNQQSLAVSNMGARSKG

Variants of: B1
Assay: protein stability index of a GFP-peptide fusion (GPS, HEK-293T) (PSI 1-6); higher = more stable
Settings: c terminus: a fixed tail appended
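Also: lentivirally expressed fusions sorted by FACS into six bins by GFP to DsRed ratio, PSI derived from sequencing read proportions per bin multiplied by bin number.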

| Variant | protein stability index |
| --- | --- |
| IDFLRVVRNQQNLAVSNMGARSKG | 2.1 |
| IDFLRVVRNQQVLAVSNMGARSKG | 2.34 |
| IDFLRVVRNQQKLAVSNMGARSKG | 2.55 |
| IDFLRVVRNQQYLAVSNMGARSKG | 1.8 |
| IDFLRVVRNQQTLAVSNMGARSKG | 2.15 |
| IDFLRVVRNQQELAVSNMGARSKG | 2.65 |
| IDFLRVVRNQQRLAVSNMGARSKG | 2.52 |
| IDFLRVVRNQQPLAVSNMGARSKG | 2.46 |
| IDFLRVVRNQQWLAVSNMGARSKG | 1.69 |
| IDFLRVVRNQQQLAVSNMGARSKG | 2.02 |
| IDFLRVVRNQQALAVSNMGARSKG | 2.04 |
| IVFLRVVRNQQSLAVSNMGARSKG | 2.84 |
| IPFLRVVRNQQSLAVSNMGARSKG | 2.54 |
| IKFLRVVRNQQSLAVSNMGARSKG | 1.42 |
| IQFLRVVRNQQSLAVSNMGARSKG | 1.88 |
| IIFLRVVRNQQSLAVSNMGARSKG | 2.35 |
| IDFLRVVRNQQSLAVSNMGARAKG | 2.2 |
| IDFLRVVRNQQSLAVSNMGAREKG | 3.13 |
| IDFLRVVRNQQSLAVSNMGARNKG | 2.57 |
| IDFLRVVRNQQSLAVSNMGARTKG | 2.23 |
| IDFLRVVRNQQSLAVSNMGARCKG | 2.51 |
| IDFLRVVRNQQSLAVSNMGARMKG | 1.81 |
| IDFLRVVRNQQSLAVSNMGARIKG | 2.05 |
| IDFLRVVRNQQSLAVSNMGARYKG | 2.16 |

| Variant | protein stability index |
| --- | --- |
| IDFLRVVRNQQSLAVSNMGALSKG | 1.7 |
| IDFLRVVRNQQSLAVSNMGAVSKG | 2 |
| IDFLRVVRNQQSLAVSNMGAHSKG | 2.67 |
| IDFLRVVRNQQSLAVSNMGANSKG | 2.65 |
| IDFLRVVRNQQSLAVSNMGATSKG | 1.66 |
| IDFLRVVRNQQSLAVSNMGAWSKG | 2.18 |
| IDFLRVVRNQQSLAVSNMGARSMG | 1.91 |
| IDFLRVVRNQQSLAVSNMGARSQG | 3.29 |
| IDFLRVVRNQQSLAVSNMGARSNG | 2.02 |
| IDFLRVVRNQQSLAVSNMGARSFG | 1.51 |
| IDFLRVVRNQQSLAVSNMGARSVG | 1.72 |
| IDFLRVVRNQQSLAVSNMGARSYG | 1.92 |
| IDFLRVVRNQQSLAVSNMGARSEG | 2.32 |
| IDFLRVVRNQQSLAVSNMGARSRG | 2.4 |
| IDFLRVVRNQQSLAVSNMGARSDG | 2.36 |
| IDFLRVVRNQQSLAVSNMGARSIG | 1.72 |
| IDFLRVVRNNQSLAVSNMGARSKG | 2.39 |
| IDFLRVVRNFQSLAVSNMGARSKG | 2.35 |
| IDFLRVVRNKQSLAVSNMGARSKG | 2.27 |
| IDFLRVVRNEQSLAVSNMGARSKG | 2.87 |
| IDFLRVVRNIQSLAVSNMGARSKG | 1.95 |
| IDFLRVVRNVQSLAVSNMGARSKG | 2.02 |
| IDFLRVVRNGQSLAVSNMGARSKG | 3.19 |
| IDFLRVVRNYQSLAVSNMGARSKG | 2.35 |

| Variant | protein stability index |
| --- | --- |
| IDFLRVVRNPQSLAVSNMGARSKG | 2.74 |
| IDFLRVVRNHQSLAVSNMGARSKG | 2.49 |
| IDFLRVVQNQQSLAVSNMGARSKG | 2.32 |
| IDFLRVVNNQQSLAVSNMGARSKG | 2.27 |
| IDFLRVVTNQQSLAVSNMGARSKG | 2.13 |
| IDFLRVVANQQSLAVSNMGARSKG | 2.54 |
| IDFLRVVHNQQSLAVSNMGARSKG | 2.32 |
| IDFLRVVDNQQSLAVSNMGARSKG | 3.22 |
| IDFLRVVSNQQSLAVSNMGARSKG | 1.8 |
| IDFLRVVYNQQSLAVSNMGARSKG | 1.78 |
| IDFLRKVRNQQSLAVSNMGARSKG | 2.8 |
| IDFLRDVRNQQSLAVSNMGARSKG | 3.26 |
| IDFLRSVRNQQSLAVSNMGARSKG | 3.36 |
| IDFLRAVRNQQSLAVSNMGARSKG | 3.12 |
| IDFLRCVRNQQSLAVSNMGARSKG | 2.42 |
| IDFLRYVRNQQSLAVSNMGARSKG | 2.13 |
| IDFLRPVRNQQSLAVSNMGARSKG | 3.31 |
| IDFLRFVRNQQSLAVSNMGARSKG | 2.26 |
| IDFLRLVRNQQSLAVSNMGARSKG | 2.5 |
| IDFLDVVRNQQSLAVSNMGARSKG | 3.71 |
| IDFLEVVRNQQSLAVSNMGARSKG | 3.47 |
| IDFLPVVRNQQSLAVSNMGARSKG | 3.73 |
| IDFLCVVRNQQSLAVSNMGARSKG | 1.48 |
| IDFLIVVRNQQSLAVSNMGARSKG | 2.69 |

| Variant | protein stability index |
| --- | --- |
| IDFLRVVRNQQSLAVSNMGPRSKG | 2.57 |
| IDFLRVVRNQQSLAVSNMGWRSKG | 2.32 |
| IDFLRVVRNQQSLAVSNMGYRSKG | 2.44 |
| IDFLRVVRNQQSLAVSNMGRRSKG | 2.47 |
| IDFLRVVRNQQSLAVSNMGDRSKG | 2.57 |
| IDFLRVVRNQQSLAVSNMGCRSKG | 2.6 |
| IDFLRVVRNQQSLAVSNMGGRSKG | 2.43 |
| IDFLRVVRNQQSLAVSNMGNRSKG | 2.78 |
| IDFLRVWRNQQSLAVSNMGARSKG | 2.91 |
| IDFLRVSRNQQSLAVSNMGARSKG | 3.61 |
| IDFLRVGRNQQSLAVSNMGARSKG | 2.96 |
| IDFLRVERNQQSLAVSNMGARSKG | 3.73 |
| IDFLRVARNQQSLAVSNMGARSKG | 3.7 |
| IDFLRVNRNQQSLAVSNMGARSKG | 3.53 |
| IDFLRVFRNQQSLAVSNMGARSKG | 1.84 |
| IDFLRVVRNQQSLAVSNMGARSKH | 2.27 |
| IDFLRVVRNQQSLAVSNMGARSKY | 3.1 |
| IDFLRVVRNQQSLAVSNMGARSKC | 1.84 |
| IDFLRVVRNQQSLAVSNMGARSKM | 2.18 |
| IDFLRVVRNQQSLAVSNMGARSKK | 3.05 |
| IDFLRVVRNQQSLAVSNMGARSKW | 1.76 |
| IDFLRVVRNQQSLAVSNMGARSKL | 2.18 |
| IDFLRVVRNQQSLEVSNMGARSKG | 1.95 |
| IDFLRVVRNQQSLSVSNMGARSKG | 2.23 |

| Variant | protein stability index |
| --- | --- |
| IDFLRVVRNQQSLRVSNMGARSKG | 2.13 |
| IDVLRVVRNQQSLAVSNMGARSKG | 3.78 |
| IDWLRVVRNQQSLAVSNMGARSKG | 2.17 |
| IDKLRVVRNQQSLAVSNMGARSKG | 3.93 |
| IDDLRVVRNQQSLAVSNMGARSKG | 4.21 |
| IDRLRVVRNQQSLAVSNMGARSKG | 3.69 |
| IDALRVVRNQQSLAVSNMGARSKG | 3.55 |
| IDSLRVVRNQQSLAVSNMGARSKG | 3.88 |
| IDILRVVRNQQSLAVSNMGARSKG | 2.34 |
| IDGLRVVRNQQSLAVSNMGARSKG | 4.02 |
| IDLLRVVRNQQSLAVSNMGARSKG | 2.47 |
| IDFLRVVRNQQSLATSNMGARSKG | 2.69 |
| IDFLRVVRNQQSLAYSNMGARSKG | 2.15 |
| IDFLRVVRNQQSLANSNMGARSKG | 2.86 |
| IDFLRVVRNQQSLAVSNMAARSKG | 2.47 |
| IDFLRVVRNQQSLAVSNMSARSKG | 2.08 |
| IDFLRVVRNQQSLAVSNMKARSKG | 2.58 |
| IDFLRVVRNQQSLAVSNMIARSKG | 2.19 |
| IDFLRVVRNQQSLAVSNMNARSKG | 2.72 |
| IDFLRVVRNQQSLAVSNMFARSKG | 2.94 |
| IDFLRVVRNQQSLAVSNMLARSKG | 2.12 |
| IDFLRVVRNQQSLAVSNMTARSKG | 2.27 |
| IDFLRVVRCQQSLAVSNMGARSKG | 1.96 |
| IDFLRVVRMQQSLAVSNMGARSKG | 1.88 |

| Variant | protein stability index |
| --- | --- |
| IDFLRVVRVQQSLAVSNMGARSKG | 1.89 |
| IDFLRVVRKQQSLAVSNMGARSKG | 2.58 |
| IDFLRVVREQQSLAVSNMGARSKG | 2.67 |
| IDFLRVVRRQQSLAVSNMGARSKG | 2.44 |
| IDFLRVVRDQQSLAVSNMGARSKG | 3.66 |
| IDFLRVVRFQQSLAVSNMGARSKG | 2.66 |
| IDFLRVVRNQQSLAVANMGARSKG | 3.26 |
| IDFLRVVRNQQSLAVMNMGARSKG | 1.83 |
| IDFLRVVRNQQSLAVDNMGARSKG | 2.48 |
| IDFLRVVRNQQSLAVYNMGARSKG | 2.38 |
| IDFLRVVRNQQSLAVWNMGARSKG | 1.46 |
| IDFLRVVRNQQSLAVFNMGARSKG | 2.31 |
| IDFLRVVRNQQSLAVINMGARSKG | 1.74 |
| IDFLRVVRNQQSLAVHNMGARSKG | 2.15 |
| IDFLRVVRNQQSLAVQNMGARSKG | 2.78 |
| IDFLRVVRNQQSLAVENMGARSKG | 2.64 |
| IDFLRVVRNQQSLAVPNMGARSKG | 2.54 |
| IDFLRVVRNQQSLAVCNMGARSKG | 1.99 |
| IDFLRVVRNQQSLAVNNMGARSKG | 2.52 |
| IDFQRVVRNQQSLAVSNMGARSKG | 3.37 |
| IDFHRVVRNQQSLAVSNMGARSKG | 3.35 |
| IDFMRVVRNQQSLAVSNMGARSKG | 2.48 |
| IDFVRVVRNQQSLAVSNMGARSKG | 2.6 |
| IDFGRVVRNQQSLAVSNMGARSKG | 3.69 |

| Variant | protein stability index |
| --- | --- |
| IDFWRVVRNQQSLAVSNMGARSKG | 1.72 |
| IDFPRVVRNQQSLAVSNMGARSKG | 3.86 |
| IDFFRVVRNQQSLAVSNMGARSKG | 2.3 |
| QDFLRVVRNQQSLAVSNMGARSKG | 4.35 |
| VDFLRVVRNQQSLAVSNMGARSKG | 3.03 |
| FDFLRVVRNQQSLAVSNMGARSKG | 2.75 |
| PDFLRVVRNQQSLAVSNMGARSKG | 4.25 |
| MDFLRVVRNQQSLAVSNMGARSKG | 2.96 |
| EDFLRVVRNQQSLAVSNMGARSKG | 4 |
| DDFLRVVRNQQSLAVSNMGARSKG | 4.38 |
| IDFLRVVRNQQSRAVSNMGARSKG | 2.34 |
| IDFLRVVRNQQSEAVSNMGARSKG | 3.58 |
| IDFLRVVRNQQSQAVSNMGARSKG | 3.3 |
| IDFLRVVRNQFSLAVSNMGARSKG | 1.95 |
| IDFLRVVRNQCSLAVSNMGARSKG | 1.91 |
| IDFLRVVRNQKSLAVSNMGARSKG | 2.26 |
| IDFLRVVRNQRSLAVSNMGARSKG | 2.31 |
| IDFLRVVRNQMSLAVSNMGARSKG | 2.1 |
| IDFLRVVRNQYSLAVSNMGARSKG | 2.12 |
| IDFLRVVRNQDSLAVSNMGARSKG | 2.57 |
| IDFLRVVRNQNSLAVSNMGARSKG | 2.84 |
| IDFLRVVRNQVSLAVSNMGARSKG | 1.67 |
| IDFLRVVRNQGSLAVSNMGARSKG | 2.35 |
| IDFLRVVRNQQSLAVSLMGARSKG | 2.22 |

| Variant | protein stability index |
| --- | --- |
| IDFLRVVRNQQSLAVSAMGARSKG | 2.7 |
| IDFLRVVRNQQSLAVSCMGARSKG | 2.1 |
| IDFLRVVRNQQSLAVSTMGARSKG | 2.71 |
| IDFLRVVRNQQSLAVSMMGARSKG | 1.65 |
| IDFLRVVRNQQSLAVSKMGARSKG | 2.24 |
| IDFLRVVRNQQSLAVSGMGARSKG | 2.21 |
| IDFLRVVRNQQSLAVSWMGARSKG | 2.14 |
| IDFLRVVRNQQSLAVSEMGARSKG | 3.08 |
| IDFLRVVRNQQSLAVSVMGARSKG | 2 |
| IDFLRVVRNQQSLAVSNTGARSKG | 3.23 |
| IDFLRVVRNQQSLAVSNQGARSKG | 2.73 |
| IDFLRVVRNQQSLAVSNCGARSKG | 2.51 |
| IDFLRVVRNQQSLAVSNSGARSKG | 3.13 |
| IDFLRVVRNQQSLAVSNNGARSKG | 3.06 |
| IDFLRVVRNQQSLAVSNDGARSKG | 3.05 |
| IDFLRVVRNQQSLAVSNIGARSKG | 2.13 |
| IDFLRVVRNQQSLAVSNFGARSKG | 2 |
| IDFLRVVRNQQSLAVSNPGARSKG | 2.57 |
| IDFLRVVRNQQSLAVSNKGARSKG | 2.87 |
| IDFLRVVRNQQSLAVSNHGARSKG | 2.91 |
